Results: the supplement of paper PMC10598134
± gives the standard deviation.

Tests used:
[1] = collision cross section of unmodified peptide (TIMS, N2, iRT-aligned); higher = larger / more extended gas-phase ion
Experimental: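 Unmodified synthetic counterpart peptides (ProteomeTools / JPT), analysed by nanoLC-TIMS-QTOF (dda-PASEF). 1/K0 was aligned run-wise to spiked iRT peptides and converted to CCS in N2 (Mason-Schamp). Values are the mean of 1-3 technical replicates for the most abundant feature at each charge state. The same unmodified peptide is repeated across rows and is averaged.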

[2] = collision cross section of modified peptide (TIMS, N2, iRT-aligned); higher = larger / more extended gas-phase ion
Method in brief: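 Collision cross section values rest on the Mason-Schamp equation applied to calibrated, run-aligned mobility data from synthetic peptides. Mobility (1/K0) was calibrated with three reference ions and aligned per run to the median iRT peptide deviation, and 1–3 technical replicates of the most abundant feature per charge state were averaged. Data came from a timsTOF Pro/HT in dda-PASEF mode (nitrogen, ~2.4 mbar) after a 120-min nanoflow C18 gradient at 60 °C.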

[3] = charge state: 2, modification: Acetyl (K)
[4] = charge state: 2, modification: GlyGly (K)
[5] = charge state: 3, modification: GlyGly (K)
[6] = charge state: 2, modification: Formyl
[7] = charge state: 3, modification: Biotin
[8] = charge state: 2, modification: Glutarylation
[9] = charge state: 3, modification: Glutarylation
[10] = charge state: 3, modification: Trimethyl (K)
[11] = charge state: 2, modification: Crotonyl
[12] = charge state: 2, modification: Butyryl

Substance: SSGPGGQNVNKVNSK
- collision cross section ([1]; charge state: 2): 401.42 ± 1.8 Å²
- collision cross section ([1]; charge state: 3): 447.95 ± 4.2 Å²

Substance: LGSPSGKTGTCR
- collision cross section ([1]; charge state: 2): 383.86 ± 1.2 Å²
- collision cross section ([1]; charge state: 3): 458.08 ± 4.7 Å²

Substance: FSAYIKNSNPALNDNLEK
- collision cross section ([1]; charge state: 2): 493.15 ± 3.7 Å²
- collision cross section ([1]; charge state: 3): 521.97 ± 3.2 Å²

Substance: GFPGIQGRK
- collision cross section ([1]; charge state: 2): 338.49 ± 1.5 Å²
- collision cross section ([1]; charge state: 3): 406.74 ± 2 Å²

Substance: GHYTIGK
- collision cross section ([1]; charge state: 2): 315.37 ± 1.9 Å²

Substance: RFSPPSSSLQPGK
- collision cross section ([1]; charge state: 2): 393.03 ± 0.67 Å²
- collision cross section ([1]; charge state: 3): 484.72 ± 0.22 Å²

Substance: FSPPSSSLQPGK
- collision cross section ([1]; charge state: 2): 371.43 ± 0.67 Å²

Substance: YADLTEDQLPSCESLK
- collision cross section ([1]; charge state: 2): 447.81 ± 1 Å²

Substance: GPPPSYGGSSR
- collision cross section ([1]; charge state: 2): 337.81 ± 0.59 Å²

Substance: VTGGIFSVTK
- collision cross section ([1]; charge state: 2): 335.98 ± 0.58 Å²

Substance: TYVQDILR
- collision cross section ([1]; charge state: 2): 349.04 ± 0.59 Å²

Substance: RGPPGAK
- collision cross section ([1]; charge state: 2): 308.91 ± 1.4 Å²

Substance: DYSVTANSK
- collision cross section ([1]; charge state: 2): 329.32 ± 0.58 Å²

Substance: LQNSYQPTNK
- collision cross section ([1]; charge state: 2): 358.91 ± 0.48 Å²

Substance: DESFLGKLGGTLAR
- collision cross section ([1]; charge state: 2): 409.59 ± 1.4 Å²
- collision cross section ([1]; charge state: 3): 475.21 ± 2.7 Å²

Substance: DYSQPTAAATVQDIK
- collision cross section ([1]; charge state: 2): 421.28 ± 0.57 Å²

Substance: LQDVSGQLSSSKK
- collision cross section ([1]; charge state: 2): 403.09 ± 1.5 Å²
- collision cross section ([1]; charge state: 3): 463.47 ± 6.3 Å²

Substance: VGYPGPSGPLGARGIPGIK
- collision cross section ([1]; charge state: 2): 447.51 ± 0.68 Å²
- collision cross section ([1]; charge state: 3): 562.22 ± 0.35 Å²

Substance: KVTLSVLSR
- collision cross section ([1]; charge state: 2): 348.44 ± 0.58 Å²
- collision cross section ([1]; charge state: 3): 443.31 ± 0.22 Å²

Substance: VFIGNLNTLVVKK
- collision cross section ([1]; charge state: 2): 421.66 ± 1.2 Å²
- collision cross section ([1]; charge state: 3): 475.82 ± 2 Å²

Substance: RGATPPAPPR
- collision cross section ([1]; charge state: 2): 338.24 ± 0.44 Å²
- collision cross section ([1]; charge state: 3): 461.07 ± 2.4 Å²

Substance: VDIDAPDVSIEGPDAKLK
- collision cross section ([1]; charge state: 2): 460.39 ± 2.9 Å²
- collision cross section ([1]; charge state: 3): 544.84 ± 1.8 Å²

Substance: VMVAPISGSVTTGTK
- collision cross section ([1]; charge state: 2): 396.94 ± 0.14 Å²

Substance: LDINTNTYTSQDLK
- collision cross section ([1]; charge state: 2): 418.99 ± 0.69 Å²

Substance: GEYFGEK
- collision cross section ([1]; charge state: 2): 311.09 ± 0.97 Å²

Substance: DTPTSAGPNSFNKGK
- collision cross section ([1]; charge state: 2): 410.87 ± 2 Å²
- collision cross section ([1]; charge state: 3): 465.77 ± 5.4 Å²

Substance: YVGESEANIR
- collision cross section ([1]; charge state: 2): 358.37 ± 0.55 Å²

Substance: GGPGGELPRGPQAGLGPR
- collision cross section ([1]; charge state: 2): 431.54 Å²
- collision cross section ([1]; charge state: 3): 491.33 ± 3.4 Å²

Substance: SLEEEGAAHSGKR
- collision cross section ([1]; charge state: 2): 399.57 ± 1.8 Å²
- collision cross section ([1]; charge state: 3): 472.78 ± 3.7 Å²

Substance: YGLIFHSTFIGRAAAK
- collision cross section ([1]; charge state: 3): 526.88 Å²

Substance: AGPNASIISLKSDK
- collision cross section ([1]; charge state: 2): 408.7 ± 1.4 Å²
- collision cross section ([1]; charge state: 3): 483.51 ± 6.7 Å²

Substance: AYPLADAHLTK
- collision cross section ([1]; charge state: 2): 383.63 ± 0.16 Å²
- collision cross section ([1]; charge state: 3): 452.45 ± 1.1 Å²

Substance: GDAGEPGR
- collision cross section ([1]; charge state: 2): 283.75 ± 1.9 Å²

Substance: LGGDLGTYVINK
- collision cross section ([1]; charge state: 2): 369.28 ± 0.16 Å²

Substance: TAIQAAGYPDK
- collision cross section ([1]; charge state: 2): 362.76 ± 1.1 Å²

Substance: YTQVGPDHNR
- collision cross section ([1]; charge state: 2): 354.55 ± 0.7 Å²
- collision cross section ([1]; charge state: 3): 423.12 ± 2 Å²

Substance: GGQGPPGPQGPIGYPGPR
- collision cross section ([1]; charge state: 2): 419.74 ± 1 Å²
- collision cross section ([1]; charge state: 3): 520.51 ± 0.87 Å²

Substance: HTLLRAPAPELLPANVAGR
- collision cross section ([1]; charge state: 3): 530.02 ± 1.9 Å²

Substance: AVSILPLLGHGVPRLPPGR
- collision cross section ([1]; charge state: 3): 563.87 ± 2.3 Å²

Substance: KSQAGASELGPFSDPR
- collision cross section ([1]; charge state: 3): 497 ± 1.7 Å²

Substance: VSPASSVDSNIPSSQGYKK
- collision cross section ([1]; charge state: 2): 469.69 ± 3.1 Å²
- collision cross section ([1]; charge state: 3): 542.55 ± 1.8 Å²

Substance: FLQEFYQDDELGK
- collision cross section ([1]; charge state: 2): 424.29 ± 0.5 Å²

Substance: LLIVSTTPYSEKDTK
- collision cross section ([1]; charge state: 2): 459.72 ± 2.9 Å²
- collision cross section ([1]; charge state: 3): 510.79 ± 5.4 Å²

Substance: LNAIYQNNLTK
- collision cross section ([1]; charge state: 2): 381.14 ± 0.16 Å²

Substance: SFSASGAQIVSR
- collision cross section ([1]; charge state: 2): 366.99 ± 0.14 Å²

Substance: FPGVGVLPGVPTGAGVK
- collision cross section ([1]; charge state: 2): 421.12 ± 0.5 Å²
- collision cross section ([1]; charge state: 3): 509.46 ± 1.2 Å²

Substance: VLSIGDGIAR
- collision cross section ([1]; charge state: 2): 348.04 ± 0.14 Å²

Substance: SYISSQTNDTHK
- collision cross section ([1]; charge state: 2): 399.56 ± 0.14 Å²
- collision cross section ([1]; charge state: 3): 459.19 ± 1.2 Å²

Substance: APEYLHR
- collision cross section ([1]; charge state: 2): 313.96 ± 0.73 Å²

Substance: DYVSQFEGSALGK
- collision cross section ([1]; charge state: 2): 385.54 ± 0.47 Å²

Substance: ISALQGKLSK [_ISALQGK(Acetyl (K))LSK_]
- collision cross section [2, 3]: 353.22 ± 0.93 Å²
- collision cross section ([2]; charge state: 3, modification: Acetyl (K)): 432.36 Å²

Substance: INNFSADIKDSK [_INNFSADIK(GlyGly (K))DSK_]
- collision cross section [2, 4]: 406.34 ± 0.36 Å²
- collision cross section [2, 5]: 465 ± 2.2 Å²

Substance: IISSIEQKEENK [_IISSIEQK(Formyl)EENK_]
- collision cross section [2, 6]: 398.84 ± 0.2 Å²

Substance: VGEFSGANKEK [_VGEFSGANK(Formyl)EK_]
- collision cross section [2, 6]: 358.59 ± 1.4 Å²

Substance: ATVASSTQKFQDLGVK [_ATVASSTQK(GlyGly (K))FQDLGVK_]
- collision cross section [2, 4]: 480.31 ± 1.5 Å²
- collision cross section [2, 5]: 500.25 ± 0.34 Å²

Substance: SKHLQEQLNELK [_SK(Biotin)HLQEQLNELK_]
- collision cross section [2, 7]: 520.89 Å²

Substance: PLRAASPFR [_PLR(Citrullination (R))AASPFR_]
- collision cross section ([2]; charge state: 2, modification: Citrullination (R)): 334.99 ± 0.26 Å²
- collision cross section ([2]; charge state: 3, modification: Citrullination (R)): 442.41 Å²

Substance: PSVGSQSNQAGQGKR [_PSVGSQSNQAGQGK(Gluratylation)R_]
- collision cross section [2, 8]: 412.64 ± 1.7 Å²
- collision cross section [2, 9]: 479.06 ± 9.1 Å²

Substance: IDLPAENSNSETIIITGKR [_IDLPAENSNSETIIITGK(Trimethyl (K))R_]
- collision cross section [2, 10]: 576.62 Å²

Substance: ITASLCDLKSR [_ITASLCDLK(Formyl)SR_]
- collision cross section [2, 6]: 378.38 Å²

Substance: HELQANCYEEVKDR [_HELQANCYEEVK(Malonyl)DR_]
- collision cross section ([2]; charge state: 3, modification: Malonyl): 477.83 ± 2.4 Å²

Substance: ALASIDSKLNQAK [_ALASIDSK(Acetyl (K))LNQAK_]
- collision cross section [2, 3]: 399.37 ± 2 Å²

Substance: DESFLGKLGGTLAR [_DESFLGK(Crotonyl)LGGTLAR_]
- collision cross section [2, 11]: 415.33 ± 0.28 Å²
- collision cross section ([2]; charge state: 3, modification: Crotonyl): 492.01 Å²

Substance: SPSDSGYSYETIGKTTK [_SPSDSGYSYETIGK(Trimethyl (K))TTK_]
- collision cross section ([2]; charge state: 2, modification: Trimethyl (K)): 455.09 ± 0.58 Å²
- collision cross section [2, 10]: 517.28 ± 2.4 Å²

Substance: SPPLPEHQKIPCNSAEPK [_SPPLPEHQK(Methyl (K))IPCNSAEPK_]
- collision cross section ([2]; charge state: 3, modification: Methyl (K)): 546.75 Å²

Substance: AAINQKLIETGER [_AAINQK(Biotin)LIETGER_]
- collision cross section ([2]; charge state: 2, modification: Biotin): 426.96 ± 1.5 Å²
- collision cross section [2, 7]: 497.24 Å²

Substance: IHVQSSSDSSDEPAEKR [_IHVQSSSDSSDEPAEK(Gluratylation)R_]
- collision cross section [2, 8]: 455.23 ± 1.5 Å²
- collision cross section [2, 9]: 511.69 ± 2 Å²

Substance: HFGPVPPSQGRGR [_HFGPVPPSQGR(Methyl (R))GR_]
- collision cross section ([2]; charge state: 3, modification: Methyl (R)): 491.26 ± 0.38 Å²

Substance: SFEDIHQYR [_SFEDIHQY(Phospho (Y))R_]
- collision cross section ([2]; charge state: 2, modification: Phospho (Y)): 367.21 ± 0.78 Å²

Substance: DHLSDKESK [_DHLSDK(Butyryl)ESK_]
- collision cross section [2, 12]: 355.58 ± 0.7 Å²

Substance: DAIHFYNKSLAEHR [_DAIHFYNK(Gluratylation)SLAEHR_]
- collision cross section [2, 8]: 458.31 Å²
- collision cross section [2, 9]: 515.3 ± 0.96 Å²

Substance: GAEKTEVAEPR [_GAEK(Crotonyl)TEVAEPR_]
- collision cross section [2, 11]: 370.18 ± 9 Å²

Substance: IVFSGNLFQHQEDSKK [_IVFSGNLFQHQEDSK(Succinyl)K_]
- collision cross section ([2]; charge state: 2, modification: Succinyl): 493.41 ± 1 Å²
- collision cross section ([2]; charge state: 3, modification: Succinyl): 524.55 ± 2 Å²

Substance: AAQASDLEKIHLDEK [_AAQASDLEK(Butyryl)IHLDEK_]
- collision cross section [2, 12]: 463.03 ± 1.1 Å²
- collision cross section ([2]; charge state: 3, modification: Butyryl): 499.42 ± 2.9 Å²
